# In PMC9828337:
# What was measured:
# Assay in all cases: MST
# [1] = target: CurKC lyase domain (residues 1–217) (Thermomonospora curvata DSM43183)
# [2] = target: AciKC lyase domain (residues 1–219)
# [3] = target: CurKC lyase-kinase didomain (residues 1–489) (Thermomonospora curvata DSM43183)
# [4] = target: CurKC, class III lanthipeptide synthetase from the biosynthesis of curvopeptin (full-length) (Thermomonospora curvata DSM43183)
# [5] = target: CurKC leader recognition domain (LRD, residues 222–309), GB1 tag removed (Thermomonospora curvata DSM43183)
# [6] = target: CurKC kinase domain (residues 218–489) (Thermomonospora curvata DSM43183)
Substance,Kd [1] [µM],Kd [2] [µM],Kd [3] [µM],Kd [4] [µM],Kd [5] [µM],Kd [6] [µM]
AciKC kinase domain (residues 220–495) (domain or fragment),14.8,43.9,,,,
CurA leader peptide,,,84,5.5,1200,801
CurKC kinase domain (residues 218–489) (domain or fragment),170,209,,,,
"CurKC leader recognition domain (LRD, residues 222–309), GB1 tag removed (domain or fragment)",139,,,,,
